The assay has as its target acetylated α-tubulin. The assay is described as follows: cell-based or functional assay.

In turn, “histone deacetylase 6 (HDAC6), full-length, His6 fused at N-terminal (from UniProt Q9UBN7 1-1215)” came in with a decrease in degree of acetylation of α-tubulin (Western blot of HeLa cells overexpressing HDAC6) of 50%.

These data come from US20030216345A1.
